From publication PMC5906670, “Structural basis of epilepsy-related ligand–receptor complex LGI1–ADAM22” (Nature Communications, 2018)

Assays:
[1] = target: T1, ADAM22 ECD (C-terminal His6 tag) (human, UniProt Q9P0K1-1 26-729, p.Pro81Arg); assay: SEC-MALS; co-purified complexes, 1 g L^−1, ENrich SEC 650 column, 20 mM Tris-HCl (pH 7.5), 150 mM NaCl (standard condition); details: both partners purified
T1 construct: signal peptide in the construct; ADAM22, human, cDNA as NM_021723 except the p.Pro81Arg polymorphism in the Pro domain; also called ADAM22 ectodomain; source: Expi293F, transient, co-expressed with LGI1 EPTP-His6; purified from culture medium (Ni-NTA, SEC)
T1 sequence (looked up): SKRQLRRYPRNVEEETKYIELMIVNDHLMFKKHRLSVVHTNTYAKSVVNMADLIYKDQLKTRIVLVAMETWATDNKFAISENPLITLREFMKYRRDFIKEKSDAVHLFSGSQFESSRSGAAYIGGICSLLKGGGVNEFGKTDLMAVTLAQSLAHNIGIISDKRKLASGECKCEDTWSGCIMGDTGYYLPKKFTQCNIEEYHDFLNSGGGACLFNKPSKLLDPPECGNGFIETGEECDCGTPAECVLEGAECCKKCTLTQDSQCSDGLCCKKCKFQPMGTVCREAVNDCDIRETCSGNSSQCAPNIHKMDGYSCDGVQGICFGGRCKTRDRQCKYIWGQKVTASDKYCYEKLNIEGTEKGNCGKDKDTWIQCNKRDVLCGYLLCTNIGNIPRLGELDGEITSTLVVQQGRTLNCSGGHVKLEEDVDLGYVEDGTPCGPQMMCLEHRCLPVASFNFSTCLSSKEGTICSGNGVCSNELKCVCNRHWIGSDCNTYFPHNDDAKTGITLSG

ADAM22 ECD (non-tagged) [2] = target: T2, ADAM22 ECD (non-tagged) (human, UniProt Q9P0K1-1 26-729, p.Pro81Arg); assay: SEC-MALS; co-purified complexes, 1 g L^−1, ENrich SEC 650 column, 20 mM Tris-HCl (pH 7.5), 500 mM NaCl; details: both partners purified
T2 construct: signal peptide in the construct; ADAM22, human, cDNA as NM_021723 except the p.Pro81Arg polymorphism in the Pro domain; source: Expi293F, transient, co-expressed with His6-tagged LGI1; purified as the complex (Ni-NTA, SEC)
T2 sequence (looked up): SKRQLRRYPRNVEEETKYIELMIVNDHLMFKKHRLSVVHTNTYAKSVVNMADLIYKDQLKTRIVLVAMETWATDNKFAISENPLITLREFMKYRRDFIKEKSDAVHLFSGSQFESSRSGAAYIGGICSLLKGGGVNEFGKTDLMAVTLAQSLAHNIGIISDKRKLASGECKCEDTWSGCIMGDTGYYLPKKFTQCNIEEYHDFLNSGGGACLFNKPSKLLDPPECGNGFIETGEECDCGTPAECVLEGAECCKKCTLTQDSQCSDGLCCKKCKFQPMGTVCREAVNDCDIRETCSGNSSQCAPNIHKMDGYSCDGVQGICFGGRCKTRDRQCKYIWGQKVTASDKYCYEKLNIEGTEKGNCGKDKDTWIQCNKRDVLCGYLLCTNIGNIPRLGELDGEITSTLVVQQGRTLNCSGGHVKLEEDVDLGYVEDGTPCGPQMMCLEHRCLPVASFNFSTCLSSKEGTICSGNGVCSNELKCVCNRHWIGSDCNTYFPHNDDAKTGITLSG

[3] = target: the molecule itself; assay: as above
[4] = target: the molecule itself; assay: SEC-MALS; co-purified complexes, 1 g L^−1, ENrich SEC 650 column, 20 mM Tris-HCl (pH 7.5), 150 mM NaCl (standard condition)
[5] = target: the molecule itself; assay: SEC-SAXS; LGI1–ADAM22 complex (LGI1^R470A) at 5.7 or 8.2 g L^−1, ENrich SEC 650, 20 mM Tris-HCl (pH 7.5), 150 or 500 mM NaCl, 293 K; scattering curve compared with curves of the 2:2 crystal structure and a 3:3 model
[6] = target: the molecule itself; assay: crystal structure; LGI1^R470A–ADAM22 ECD complex, co-expressed and co-purified; sitting drop, 20 °C, 10% PEG8000, 0.1 M zinc acetate, 0.1 M MES-NaOH (pH 6.0); 7.13 Å
ADAM22 ECD (non-tagged) [7] = target: T2, ADAM22 ECD (non-tagged); assay: SEC-MALS; co-purified complexes, 1 g L^−1, ENrich SEC 650 column, 20 mM Tris-HCl (pH 7.5), 150 mM NaCl (standard condition); details: both partners purified

B1: LGI1 EPTP (domain or fragment, human, UniProt O95970-1 224-557, looked up)
chain: TEFAKSQDLPYQSLSIDTFSYLNDEYVVIAQPFTGKCIFLEWDHVEKTFRNYDNITGTSTVVCKPIVIETQLYVIVAQLFGGSHIYKRDSFANKFIKIQDIEILKIRKPNDIETFKIENNWYFVVADSSKAGFTTIYKWNGNGFYSHQSLHAWYRDTDVEYLEIVRTPQTLRTPHLILSSSSQRPVIYQWNKATQLFTNQTDIPNMEDVYAVKHFSVKGDVYICLTRFIGDSKVMKWGGSSFQDIQRMPSRGSMVFQPLQINNYQYAILGSDYSFTQVYNWDAEKAKFVKFQELNVQAPRSFTHVSINKRNFLFASSFKGNTQIYKHVIVDLSA
notes: LGI1, human, cDNA NM_005097; EPTP domain, residues 224-557; also called C-terminal epitempin-repeat (EPTP) domain of LGI1; EAR domain; source: Expi293F, transient, co-expressed with His6-tagged ADAM22 ECD; purified from culture medium (Ni-NTA, SEC)
stoichiometry N [1]: 1 LGI1 EPTP per ADAM22 ECD

B2: full-length LGI1 (residues 37–557), C-terminal His6 (ligand, human, UniProt O95970-1 37-557, looked up)
chain: PAKPKCPAVCTCTKDNALCENARSIPRTVPPDVISLSFVRSGFTEISEGSFLFTPSLQLLLFTSNSFDVISDDAFIGLPHLEYLFIENNNIKSISRHTFRGLKSLIHLSLANNNLQTLPKDIFKGLDSLTNVDLRGNSFNCDCKLKWLVEWLGHTNATVEDIYCEGPPEYKKRKINSLSSKDFDCIITEFAKSQDLPYQSLSIDTFSYLNDEYVVIAQPFTGKCIFLEWDHVEKTFRNYDNITGTSTVVCKPIVIETQLYVIVAQLFGGSHIYKRDSFANKFIKIQDIEILKIRKPNDIETFKIENNWYFVVADSSKAGFTTIYKWNGNGFYSHQSLHAWYRDTDVEYLEIVRTPQTLRTPHLILSSSSQRPVIYQWNKATQLFTNQTDIPNMEDVYAVKHFSVKGDVYICLTRFIGDSKVMKWGGSSFQDIQRMPSRGSMVFQPLQINNYQYAILGSDYSFTQVYNWDAEKAKFVKFQELNVQAPRSFTHVSINKRNFLFASSFKGNTQIYKHVIVDLSA
notes: LGI1, human, cDNA NM_005097; 'full length, residues 37–557' (without the signal peptide); PDB 5Y31 holds the R470A mutant of the same limits; also called LGI1^WT; source: Expi293F, transient, co-expressed with non-tagged ADAM22 ECD; purified from culture medium (Ni-NTA, SEC)
stoichiometry N (ADAM22 ECD (non-tagged) [2]): 1 LGI1 per ADAM22 ECD (2:2) | stoichiometry N [3]: 2 LGI1 chains in the assembly | stoichiometry N [4]: 3 LGI1 chains in the assembly

B3: LGI1^R470A (residues 37–557), C-terminal His6 (ligand, human, UniProt O95970-1 37-557, looked up)
chain: PAKPKCPAVCTCTKDNALCENARSIPRTVPPDVISLSFVRSGFTEISEGSFLFTPSLQLLLFTSNSFDVISDDAFIGLPHLEYLFIENNNIKSISRHTFRGLKSLIHLSLANNNLQTLPKDIFKGLDSLTNVDLRGNSFNCDCKLKWLVEWLGHTNATVEDIYCEGPPEYKKRKINSLSSKDFDCIITEFAKSQDLPYQSLSIDTFSYLNDEYVVIAQPFTGKCIFLEWDHVEKTFRNYDNITGTSTVVCKPIVIETQLYVIVAQLFGGSHIYKRDSFANKFIKIQDIEILKIRKPNDIETFKIENNWYFVVADSSKAGFTTIYKWNGNGFYSHQSLHAWYRDTDVEYLEIVRTPQTLRTPHLILSSSSQRPVIYQWNKATQLFTNQTDIPNMEDVYAVKHFSVKGDVYICLTRFIGDSKVMKWGGSSFQDIQAMPSRGSMVFQPLQINNYQYAILGSDYSFTQVYNWDAEKAKFVKFQELNVQAPRSFTHVSINKRNFLFASSFKGNTQIYKHVIVDLSA
notes: LGI1, human, cDNA NM_005097, residues 37-557; also called LGI1 (in the 'LGI1–ADAM22 complex'); source: Expi293F, transient, co-expressed with non-tagged ADAM22 ECD; purified as the complex (Ni-NTA, SEC)
stoichiometry N [5]: 3 LGI1 chains in the assembly | stoichiometry N [6]: 2 LGI1 chains in the assembly

B4: LGI1^R474Q (residues 37–557), C-terminal His6 (ligand, human, UniProt O95970-1 37-557, looked up)
chain: PAKPKCPAVCTCTKDNALCENARSIPRTVPPDVISLSFVRSGFTEISEGSFLFTPSLQLLLFTSNSFDVISDDAFIGLPHLEYLFIENNNIKSISRHTFRGLKSLIHLSLANNNLQTLPKDIFKGLDSLTNVDLRGNSFNCDCKLKWLVEWLGHTNATVEDIYCEGPPEYKKRKINSLSSKDFDCIITEFAKSQDLPYQSLSIDTFSYLNDEYVVIAQPFTGKCIFLEWDHVEKTFRNYDNITGTSTVVCKPIVIETQLYVIVAQLFGGSHIYKRDSFANKFIKIQDIEILKIRKPNDIETFKIENNWYFVVADSSKAGFTTIYKWNGNGFYSHQSLHAWYRDTDVEYLEIVRTPQTLRTPHLILSSSSQRPVIYQWNKATQLFTNQTDIPNMEDVYAVKHFSVKGDVYICLTRFIGDSKVMKWGGSSFQDIQRMPSQGSMVFQPLQINNYQYAILGSDYSFTQVYNWDAEKAKFVKFQELNVQAPRSFTHVSINKRNFLFASSFKGNTQIYKHVIVDLSA
notes: LGI1, human, cDNA NM_005097, residues 37-557; R474Q is a human ADLTE mutation; source: Expi293F, transient, co-expressed with ADAM22 ECD; purified as the complex (Ni-NTA, SEC)
stoichiometry N (ADAM22 ECD (non-tagged) [7]): 1 LGI1 per ADAM22 ECD
